Values of other authors as cited in PMC2650391.
pKd: −log10 of the molar value.

Biological target: Histone H3K4me3 peptide (Homo sapiens) (UniProt P68431)

Sequence of ING2 PHD (Q9H160 209-264): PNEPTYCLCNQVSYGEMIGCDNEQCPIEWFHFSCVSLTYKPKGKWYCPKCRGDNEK

ING2 PHD (from UniProt Q9H160)
pKd: 5.82
